Earlier results, collected in patent US10373702B2, “Water-soluble trans-membrane proteins and methods for the preparation and use thereof” (Massachusetts Institute of Technology, priority 2014, dated 2019).

Biological target: SDF1a (Homo sapiens, UniProt P48061)
Settings: native membrane-bound receptor with SDF1a

Sequence of SDF1a (P48061 22-89 limits assumed, species assumed): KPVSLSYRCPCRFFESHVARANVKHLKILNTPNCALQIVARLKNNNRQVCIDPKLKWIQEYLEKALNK
Sequence of SDF1a (P61073 whole entry partner, species assumed): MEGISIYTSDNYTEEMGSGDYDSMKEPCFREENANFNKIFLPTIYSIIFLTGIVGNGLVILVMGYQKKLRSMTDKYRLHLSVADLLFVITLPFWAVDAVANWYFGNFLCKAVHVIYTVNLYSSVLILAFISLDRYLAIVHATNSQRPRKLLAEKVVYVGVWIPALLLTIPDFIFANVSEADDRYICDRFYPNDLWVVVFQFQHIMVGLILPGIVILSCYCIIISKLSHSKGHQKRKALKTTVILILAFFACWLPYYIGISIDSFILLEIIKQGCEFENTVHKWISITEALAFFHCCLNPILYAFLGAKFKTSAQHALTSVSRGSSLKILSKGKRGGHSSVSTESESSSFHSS

Kd: ~100 nM
B1: CXCR4: native CXC chemokine receptor type 4 isoform a, 356 amino acids (protein)
chain: MSIPLPLLQIYTSDNYTEEMGSGDYDSMKEPCFREENANFNKIFLPTIYSIIFLTGIVGNGLVILVMGYQKKLRSMTDKYRLHLSVADLLFVITLPFWAVDAVANWYFGNFLCKAVHVIYTVNLYSSVLILAFISLDRYLAIVHATNSQRPRKLLAEKVVYVGVWIPALLLTIPDFIFANVSEADDRYICDRFYPNDLWVVVFQFQHIMVGLILPGIVILSCYCIIISKLSHSKGHQKRKALKTTVILILAFFACWLPYYIGISIDSFILLEIIKQGCEFENTVHKWISITEALAFFHCCLNPILYAFLGAKFKTSAQHALTSVSRGSSLKILSKGKRGGHSSVSTESESSSFHSS
